In general, stoichiometry N refers to a count of units in the complex or per binding partner.

For the test, the target named is endogenous MpUVR8 of Marchantia polymorpha (Marchantia polymorpha (endogenous in Tak-1 gemmalings)). Briefly: cross-linking.

“endogenous MpUVR8 of Marchantia polymorpha (natural protein)” displayed a stoichiometry N of 2.

The record behind these values is paper doi:10.1101/2025.07.16.665153.
